Columns and labels:
[1] = biological target: T1, cynomolgus (Macaca fascicularis) ST2L extracellular domain with C-terminal His6 tag (Macaca fascicularis (cynomolgus), UniProt Q01638 19-321 (human entry)); assay: SPR, mAb captured, ST2L-ECD in solution
T1 construct: also called cyno ST2L-ECD; cynoST2L-ECD
T1 chain: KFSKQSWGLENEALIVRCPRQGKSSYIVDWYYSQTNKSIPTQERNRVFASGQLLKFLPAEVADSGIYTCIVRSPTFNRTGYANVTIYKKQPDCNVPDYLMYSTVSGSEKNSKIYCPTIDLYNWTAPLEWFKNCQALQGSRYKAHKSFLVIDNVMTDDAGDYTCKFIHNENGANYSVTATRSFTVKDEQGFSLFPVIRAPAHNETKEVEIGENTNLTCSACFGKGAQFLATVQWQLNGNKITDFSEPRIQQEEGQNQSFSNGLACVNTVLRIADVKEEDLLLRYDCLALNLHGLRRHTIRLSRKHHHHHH

[2] = biological target: T2, human ST2L extracellular domain with C-terminal His6 tag (human, UniProt Q01638 19-328); assay: SPR, mAb captured, ST2L-ECD in solution
T2 construct: also called huST2L-ECD; ST2L-ECD
T2 sequence: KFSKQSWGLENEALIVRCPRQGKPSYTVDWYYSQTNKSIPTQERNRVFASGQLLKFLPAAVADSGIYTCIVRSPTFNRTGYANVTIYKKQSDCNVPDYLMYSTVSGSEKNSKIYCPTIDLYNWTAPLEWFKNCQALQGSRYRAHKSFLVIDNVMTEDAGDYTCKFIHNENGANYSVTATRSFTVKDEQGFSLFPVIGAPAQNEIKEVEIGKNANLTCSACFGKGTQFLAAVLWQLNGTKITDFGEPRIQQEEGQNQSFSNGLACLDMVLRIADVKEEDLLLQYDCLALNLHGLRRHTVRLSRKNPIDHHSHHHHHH

Kd [1]: 5 pM
koff [1]: 7.02e-05 s⁻¹
kon [1]: 1.39e+07 M⁻¹ s⁻¹
Kd [2]: 11 pM
koff [2]: 6.76e-05 s⁻¹
kon [2]: 5.97e+06 M⁻¹ s⁻¹
B1: STLM208 (antibody, V domains shown)
VH: EVQLLESGGGLVQPGGSLRLSCAASGFTFSIYDMIWVRQAPGKGLEWVSSIRGEGGGTYYADSVKGRFTISRDNSKNTLYLQMNSLRAEDTAVYYCARDPWSTEGSFFVLDYWGQGTLVTVSS
VL: EIVLTQSPATLSLSPGERATLSCRASQSVDDDLAWYQQKPGQAPRLLIYDASNRATGIPARFSGSGSGTDFTLTISSLEPEDFAVYYCQQYITAPLTFGQGTKVEIK
notes: frameworks VH3-23 / Vk-L6
